Assays:
SENP1 (415–644) (human) = SENP1 (415–644) (human) (UniProt Q9P0U3)
[1] = target: SENP1 C603A (415–644) (human) (UniProt Q9P0U3); test: ITC
Sequence of SENP1 C603A (415–644) (human) (Q9P0U3 415-644 C603A): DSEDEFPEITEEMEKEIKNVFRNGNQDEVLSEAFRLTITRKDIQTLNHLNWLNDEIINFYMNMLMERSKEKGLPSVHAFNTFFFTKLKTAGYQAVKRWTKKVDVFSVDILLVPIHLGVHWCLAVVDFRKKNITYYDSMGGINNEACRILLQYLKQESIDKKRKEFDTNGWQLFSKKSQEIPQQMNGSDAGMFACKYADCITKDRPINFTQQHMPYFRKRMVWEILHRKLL

Sequence of SENP1 (415–644) (human) (Q9P0U3 415-644): as the sequence (Q9P0U3 415-644 C603A) above, with A189C counted along it

apparent Km, Km(app), of cleavage by SENP1 (FRET-based protease assay) (SENP1 (415–644) (human)) [µM] | IC50 of product inhibition of SENP1 cleavage of YFP–RanGAP1–SUMO-2–ECFP (500 nM) (SENP1 (415–644) (human)) [nM] | IC50 of product inhibition of SENP1 cleavage of YFP–SUMO-2-FL–ECFP (500 nM) (SENP1 (415–644) (human)) [nM] | Kd [1] [nM] | dH [1] [kcal/mol] | Substance
0.242 |  |  |  |  | YFP–RanGAP1–SUMO-2–ECFP (from UniProt P46060 418-587; P55854 1-93) (complex)
 | 1600 | 2230 | 8.56 | -14.5 | mature SUMO-2 (SUMO-2-GG) (from UniProt P55854 1-93) (natural protein)

From paper PMC3326531
